{"source": "patent US20140322269A1", "key": {"[1]": {"target": "c1d1_N386D displayed on yeast (Saccharomyces cerevisiae)", "test": "yeast surface display; Fab titration, flow cytometry"}, "[2]": {"target": "c1d1_v2 displayed on yeast (Saccharomyces cerevisiae)", "test": "yeast surface display; Fab titration, flow cytometry"}, "[3]": {"target": "c1d1_b10disulf displayed on yeast (Saccharomyces cerevisiae)", "test": "yeast surface display; Fab titration, flow cytometry"}, "[4]": {"target": "eOD_L260F_N276D", "test": "method not given"}, "[5]": {"target": "eOD_L260F", "test": "method not given"}, "[6]": {"target": "eOD_N276D_N463D", "test": "method not given"}, "[7]": {"target": "eOD_N276D", "test": "method not given"}, "[8]": {"target": "c1d1_N386D", "test": "SPR"}, "[9]": {"target": "c1d1_N386D", "test": "ITC"}, "[10]": {"target": "c1d1_b10disulf", "test": "ITC"}, "[11]": {"target": "c1d1_N386D", "test": "SPR and ITC"}, "[12]": {"target": "c1d1_N386D", "test": "method not restated"}, "[13]": {"target": "c1d1_N386D", "test": "SPR, kinetics fitting"}, "[14]": {"target": "eOD_T257S_L260F_S375W", "test": "method not given"}, "[15]": {"target": "eOD_T257S_S375W", "test": "method not given"}, "[16]": {"target": "ODml(N386) (Human immunodeficiency virus type 1 group M subtype B (isolate HXB2) (HIV-1)) (UniProt P04578)", "test": "SPR; IgG captured, OD variant as analyte"}, "[17]": {"target": "c2d1_b10disulf", "test": "SPR; IgG captured, OD variant as analyte"}, "[18]": {"target": "wild-type core GP120 (soluble, mammalian-expressed) (HIV, HxB2 strain) (UniProt P04578)", "test": "SPR; IgG captured by anti-human IgG, gp120 as analyte"}, "[19]": {"target": "wild-type core GP120 (soluble, mammalian-expressed) (HIV, HxB2 strain) (UniProt P04578)", "test": "method not restated; rounded form of 3.9 nM of Table 1"}, "[20]": {"target": "eOD_N276D_N463D", "test": "method not given; protein from 293 cells"}}, "data": [{"substance": "b12 Fab", "values": [{"measurement": "Kd", "setting": "[1]", "value": 21, "unit": "nM"}, {"measurement": "Kd", "setting": "[2]", "value": 11, "unit": "nM"}]}, {"substance": "VRC01 Fab", "values": [{"measurement": "Kd", "setting": "[1]", "value": "> 50", "unit": "nM"}, {"measurement": "Kd", "setting": "[3]", "value": "> 50", "unit": "nM"}, {"measurement": "Kd", "setting": "[2]", "value": "> 50", "unit": "nM"}]}, {"substance": "germline VRC01 IgG (antibody)", "values": [{"measurement": "Kd", "setting": "[4]", "value": 149000, "unit": "nM"}, {"measurement": "Kd", "setting": "[5]", "value": "> 500000", "unit": "nM"}, {"measurement": "Kd", "setting": "[6]", "value": 380000, "unit": "nM"}, {"measurement": "Kd", "setting": "[7]", "value": 640000, "unit": "nM"}]}, {"substance": "b12 IgG (antibody)", "values": [{"measurement": "fold improvement of KD over OD (386)", "setting": "[8]", "value": 28, "unit": "fold"}]}, {"substance": "VRC01 IgG (mature VRC01) (antibody)", "values": [{"measurement": "Kd", "setting": "[9]", "value": 200, "unit": "nM"}, {"measurement": "Kd", "setting": "[10]", "value": 100, "unit": "nM"}, {"measurement": "fold improvement of KD over c1d1 N386D", "setting": "[10]", "value": 2, "unit": "fold"}, {"measurement": "fold worse KD than core gp120", "setting": "[11]", "value": "35 to 50", "unit": "fold"}, {"measurement": "Kd", "setting": "[12]", "value": 80, "unit": "nM"}, {"measurement": "fold weaker affinity than core gp120", "setting": "[12]", "value": "> 10", "unit": "fold"}, {"measurement": "Kd", "setting": "[13]", "value": 139, "unit": "nM"}, {"measurement": "Kd", "setting": "[4]", "value": 11.9, "unit": "nM"}, {"measurement": "Kd", "setting": "[5]", "value": 14.3, "unit": "nM"}, {"measurement": "Kd", "setting": "[7]", "value": 27.8, "unit": "nM"}, {"measurement": "Kd", "setting": "[14]", "value": 8.6, "unit": "nM"}, {"measurement": "Kd", "setting": "[15]", "value": 90, "unit": "nM"}, {"measurement": "Kd", "setting": "[16]", "value": 298, "unit": "nM"}, {"measurement": "Kd", "setting": "[17]", "value": 289, "unit": "nM"}, {"measurement": "Kd", "setting": "[18]", "value": 3.9, "unit": "nM"}, {"measurement": "Kd", "setting": "[19]", "value": 4, "unit": "nM"}, {"measurement": "Kd", "setting": "[20]", "value": 4, "unit": "nM"}]}]}
